Measurements as given in patent US20230129258A1 (Bicycle, published 2023).
Starred links: 1 amine or outer side, 2 acyl side, 3 side chain; linkers in the order of their positions; H or OH if unused. Positions of bridges follow the written chain, without caps; N, C: chain ends. Non-standard residues stand in square brackets, D forms with d. Chains are numbered I, II in the order given. No end group written: not given here. dLys(PYA) = D-lysine Nε-acylated with 4-pentynoic acid, clicked (triazole) to the linker azide, O=C(CCc1cn([*:3])nn1)NCCCC[C@@H](N[*:1])C(=O)[*:2]; TATA = O=C(CC[*:1])N1CN(C(=O)CC[*:2])CN(C(=O)CC[*:3])C1; 1Nal = N[C@@H](Cc1cccc2ccccc12)C(=O)O; Hyp = O=C(O)[C@@H]1C[C@@H](O)CN1; hArg = N=C(N)NCCCC[C@H](N)C(=O)O; tBuAla = CC(C)(C)C[C@H](N)C(=O)O; Nle = CCCC[C@H](N)C(=O)O

Tests used:
[1] = target: T1, Nectin-1 (2880-N1, R&D Systems) (UniProt Q15223 31-334, limits assumed, biotinylated); test: SPR, biotinylated target on streptavidin surface
T1 sequence (looked up): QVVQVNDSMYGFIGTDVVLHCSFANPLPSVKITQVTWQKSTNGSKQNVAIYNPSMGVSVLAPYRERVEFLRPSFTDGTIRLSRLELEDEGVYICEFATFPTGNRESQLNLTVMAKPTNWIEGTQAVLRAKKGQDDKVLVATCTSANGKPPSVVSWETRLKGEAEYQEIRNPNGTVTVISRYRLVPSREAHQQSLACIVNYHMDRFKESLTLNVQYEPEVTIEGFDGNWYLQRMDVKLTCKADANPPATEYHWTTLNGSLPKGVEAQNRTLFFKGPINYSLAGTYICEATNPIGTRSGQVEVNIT

[2] = target: T2, Nectin-2 (2229-N2, R&D Systems) (UniProt Q92692 32-360, limits assumed, biotinylated); test: SPR, biotinylated target on streptavidin surface
T2 sequence (looked up): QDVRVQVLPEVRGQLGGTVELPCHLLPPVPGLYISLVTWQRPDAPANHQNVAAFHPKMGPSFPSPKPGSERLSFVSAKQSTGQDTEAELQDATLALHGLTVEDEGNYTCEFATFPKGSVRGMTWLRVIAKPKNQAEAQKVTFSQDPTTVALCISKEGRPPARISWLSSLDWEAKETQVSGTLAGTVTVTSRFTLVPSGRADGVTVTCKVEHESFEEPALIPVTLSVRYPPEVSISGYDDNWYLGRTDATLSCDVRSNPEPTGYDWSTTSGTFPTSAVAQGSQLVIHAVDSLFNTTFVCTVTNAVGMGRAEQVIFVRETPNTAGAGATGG

[3] = target: Nectin-3 (3064-N3, R&D Systems) (UniProt Q9NQS3 58-404, limits assumed, biotinylated); test: SPR, biotinylated target on streptavidin surface
Sequence of Nectin-3 (3064-N3, R&D Systems) (Q9NQS3 58-404 limits assumed): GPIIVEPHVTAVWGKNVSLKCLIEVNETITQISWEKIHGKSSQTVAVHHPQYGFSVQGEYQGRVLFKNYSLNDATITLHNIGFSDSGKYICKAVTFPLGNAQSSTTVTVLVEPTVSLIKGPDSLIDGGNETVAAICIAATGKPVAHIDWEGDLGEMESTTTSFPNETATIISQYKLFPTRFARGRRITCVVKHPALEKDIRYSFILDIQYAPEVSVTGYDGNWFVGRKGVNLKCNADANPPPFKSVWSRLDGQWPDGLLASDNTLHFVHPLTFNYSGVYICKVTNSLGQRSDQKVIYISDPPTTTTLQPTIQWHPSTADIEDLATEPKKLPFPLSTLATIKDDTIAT

[4] = target: T3, Nectin-like-2 (3519-S4-050, R&D Systems) (UniProt Q9BY67 45-374, biotinylated); test: SPR, biotinylated target on streptavidin surface
T3 sequence (looked up): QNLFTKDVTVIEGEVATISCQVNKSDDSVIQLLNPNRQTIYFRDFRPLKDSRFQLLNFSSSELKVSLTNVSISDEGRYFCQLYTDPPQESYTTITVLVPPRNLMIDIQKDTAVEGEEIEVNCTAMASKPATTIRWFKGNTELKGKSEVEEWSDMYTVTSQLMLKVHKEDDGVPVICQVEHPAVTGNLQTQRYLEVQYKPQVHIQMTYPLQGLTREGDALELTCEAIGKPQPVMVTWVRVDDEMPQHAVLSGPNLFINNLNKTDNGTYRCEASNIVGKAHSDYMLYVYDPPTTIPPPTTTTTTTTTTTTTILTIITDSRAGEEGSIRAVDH

[5] = target: T4, Nectin-like-3 (4290-S4-050, R&D Systems) (UniProt Q8N3J6 25-367, biotinylated); test: SPR, biotinylated target on streptavidin surface
T4 sequence (looked up): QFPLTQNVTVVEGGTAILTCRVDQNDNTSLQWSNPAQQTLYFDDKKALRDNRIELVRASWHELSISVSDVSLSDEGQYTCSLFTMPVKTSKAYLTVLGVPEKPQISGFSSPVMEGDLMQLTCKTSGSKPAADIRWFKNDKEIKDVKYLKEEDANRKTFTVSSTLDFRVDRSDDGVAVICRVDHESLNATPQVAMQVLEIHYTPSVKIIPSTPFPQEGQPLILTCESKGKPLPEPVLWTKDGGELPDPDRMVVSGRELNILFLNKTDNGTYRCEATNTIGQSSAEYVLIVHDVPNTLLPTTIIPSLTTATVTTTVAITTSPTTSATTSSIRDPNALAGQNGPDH

[6] = target: T5, Nectin-like-4 (4164-S4, R&D Systems) (UniProt Q8NFZ8 21-324, biotinylated); test: SPR, biotinylated target on streptavidin surface
T5 sequence (looked up): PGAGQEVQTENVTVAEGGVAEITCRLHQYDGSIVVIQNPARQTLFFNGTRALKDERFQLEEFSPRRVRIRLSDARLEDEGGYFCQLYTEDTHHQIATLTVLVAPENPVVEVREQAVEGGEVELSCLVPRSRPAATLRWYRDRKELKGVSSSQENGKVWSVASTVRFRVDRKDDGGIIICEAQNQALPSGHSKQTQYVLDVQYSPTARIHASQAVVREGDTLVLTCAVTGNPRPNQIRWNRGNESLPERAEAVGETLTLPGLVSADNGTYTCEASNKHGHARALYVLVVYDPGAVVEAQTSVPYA

[7] = target: T6, Nectin-like-5 (2530-CD-050, R&D Systems) (UniProt P15151 27-343, biotinylated); test: SPR, biotinylated target on streptavidin surface
T6 sequence (looked up): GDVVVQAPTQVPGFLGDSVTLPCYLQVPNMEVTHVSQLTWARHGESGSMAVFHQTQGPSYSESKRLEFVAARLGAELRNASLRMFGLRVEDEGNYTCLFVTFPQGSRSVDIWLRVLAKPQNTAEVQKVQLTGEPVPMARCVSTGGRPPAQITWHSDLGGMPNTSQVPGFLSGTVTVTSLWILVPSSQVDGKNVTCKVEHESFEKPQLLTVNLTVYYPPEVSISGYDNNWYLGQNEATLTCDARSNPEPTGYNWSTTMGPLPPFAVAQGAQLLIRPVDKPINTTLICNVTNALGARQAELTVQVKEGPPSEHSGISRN

[8] = target: T7, human Nectin-4 extracellular domain (human, UniProt Q96NY8 32-349, biotinylated where captured on the streptavidin chip); test: SPR sandwich assay, BCY11863 captured on biotinylated human CD137, soluble Nectin-4 ECD passed over, n = 4
T7 construct: extracellular domain; also called Nectin-4 (human); Biotinylated - Nectin-4 extracellular domain
T7 sequence (looked up): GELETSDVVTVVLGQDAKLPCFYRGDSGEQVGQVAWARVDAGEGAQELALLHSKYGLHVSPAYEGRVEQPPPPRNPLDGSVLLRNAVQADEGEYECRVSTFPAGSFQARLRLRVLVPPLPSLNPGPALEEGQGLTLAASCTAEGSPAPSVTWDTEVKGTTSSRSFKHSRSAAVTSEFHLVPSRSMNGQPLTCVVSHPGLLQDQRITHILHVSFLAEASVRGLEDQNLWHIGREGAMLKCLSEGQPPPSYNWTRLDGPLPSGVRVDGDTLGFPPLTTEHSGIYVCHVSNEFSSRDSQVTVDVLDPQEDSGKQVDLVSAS

B1: heterotandem bicyclic peptide complex BCY11863 (peptide)
peptide 1: CP[1Nal][dD]CM[hArg]DWSTP[Hyp]WC
peptide 2: Ac-C[tBuAla]PE[dLys(PYA)]PYCFADPY[Nle]CA
modifications: linker I:1-I:5-I:15, II:1-II:8-II:15 via TATA; not fully specified (bridges); also: 1:2 complex: BCY8116 + 2x BCY8928
notes: also called Nectin-4/CD137 heterotandem
no binding (tested: 5000 nM): binding result [1] | binding result [2] | binding result [3] | binding result [4] | binding result [5] | binding result [6] | binding result [7]
12 nM: Kd [8]
